This is an account of results in US20080219985A1 (published 2008).

“And” between values parts separate entries of the source, which are not always exact repeats. Equal entries are not always repeated. Where two headings read alike, the source gives them in different places.

Experiment [1] addresses T1, GPCR73a receptor (human, UniProt Q8TCW9 1-393). Briefly: cell-based or functional assay.
Experiment [2] concerns the target T1, GPCR73a receptor. The experiment can be described thus: cell-based or functional assay. This is another data set of the same source.
For experiment [3], the target named is T2, GPCR73b receptor (Homo sapiens (Human), UniProt Q8NFJ6 1-384). The experiment can be described thus: cell-based or functional assay.
T2 sequence (Q8NFJ6 whole entry): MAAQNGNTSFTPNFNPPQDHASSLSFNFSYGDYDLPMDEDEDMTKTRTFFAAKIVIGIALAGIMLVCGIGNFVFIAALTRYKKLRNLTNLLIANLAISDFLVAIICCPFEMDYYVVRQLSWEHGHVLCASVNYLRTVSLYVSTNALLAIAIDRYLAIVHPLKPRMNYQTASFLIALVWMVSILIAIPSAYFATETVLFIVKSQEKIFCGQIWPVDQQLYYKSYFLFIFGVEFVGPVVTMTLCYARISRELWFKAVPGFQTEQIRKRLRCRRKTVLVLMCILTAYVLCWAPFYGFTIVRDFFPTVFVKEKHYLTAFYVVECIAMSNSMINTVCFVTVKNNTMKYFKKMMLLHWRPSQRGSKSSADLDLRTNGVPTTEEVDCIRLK
The target in experiment [4] is T2, GPCR73b receptor. Briefly: cell-based or functional assay. This is another data set of the same source.
For experiment [5], the target named is T3, PROK2 receptor on Wky12-22 cells (rat aortic smooth muscle cells) (rat). Briefly: cell-based or functional assay.
T3 sequence (Q4AEG4 whole entry): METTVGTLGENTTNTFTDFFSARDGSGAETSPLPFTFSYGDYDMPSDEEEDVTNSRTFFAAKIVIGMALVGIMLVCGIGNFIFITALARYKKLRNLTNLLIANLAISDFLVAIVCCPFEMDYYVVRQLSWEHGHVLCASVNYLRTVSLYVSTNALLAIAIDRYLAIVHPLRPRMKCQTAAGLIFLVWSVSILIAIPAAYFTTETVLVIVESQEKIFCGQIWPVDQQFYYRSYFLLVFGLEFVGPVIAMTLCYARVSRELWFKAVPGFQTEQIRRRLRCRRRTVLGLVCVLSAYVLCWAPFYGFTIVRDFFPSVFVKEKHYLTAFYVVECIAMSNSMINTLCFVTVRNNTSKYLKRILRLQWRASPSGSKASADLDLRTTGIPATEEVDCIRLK
Experiment [6] concerns the target PROK2 receptor on 4T1.2 murine breast cancer cells (mouse). The experiment can be described thus: cell-based or functional assay.
Experiment [7] has as its target T3, PROK2 receptor on Wky12-22 cells (rat …). Briefly: saturation binding of I-125 PROK2 to Wky12-22 cell monolayers at 4 C, two-site nonlinear regression, high affinity site. Here is the method: (§1) The binding of PROK2 to Wky12-22 cells was assessed using I¹²⁵-radiolabeled PROK2. Wky12-22 cells were seeded at low cell density and cultured for three to four days until they reached about 70% confluency. The cells were placed on ice, the medium was removed, and the monolayers were washed. The cells were incubated with increasing amounts of I¹²⁵-PROK2 in the absence (total binding) and presence (nonspecific binding) of a large excess of unlabeled PROK2. After various times at 4° C., the binding media were removed, the monolayers were washed, and the cells were solubilized with a small volume of 1.0 N NaOH. Cell associated radioactivity was determined in a gamma counter. The specific binding of I¹²⁵-PROK2 was calculated as the difference between the total and nonspecific values. The measured radioacitivity was normalized to cell number that was determined on a set of parallel cultures. Nonlinear regression using a two-site model was used to fit the binding data for determination of Kd and Bmax.

For experiment [8] the target is unchanged. The experiment can be described thus: saturation binding of I-125 PROK2 to Wky12-22 cell monolayers at 4 C, two-site nonlinear regression, low affinity site. Here is the method: as §1
The target in experiment [9] is T1, GPCR73a receptor. Briefly: cell-based or functional assay. The source holds these as a separate data set.

T1 sequence (Q8TCW9 whole entry): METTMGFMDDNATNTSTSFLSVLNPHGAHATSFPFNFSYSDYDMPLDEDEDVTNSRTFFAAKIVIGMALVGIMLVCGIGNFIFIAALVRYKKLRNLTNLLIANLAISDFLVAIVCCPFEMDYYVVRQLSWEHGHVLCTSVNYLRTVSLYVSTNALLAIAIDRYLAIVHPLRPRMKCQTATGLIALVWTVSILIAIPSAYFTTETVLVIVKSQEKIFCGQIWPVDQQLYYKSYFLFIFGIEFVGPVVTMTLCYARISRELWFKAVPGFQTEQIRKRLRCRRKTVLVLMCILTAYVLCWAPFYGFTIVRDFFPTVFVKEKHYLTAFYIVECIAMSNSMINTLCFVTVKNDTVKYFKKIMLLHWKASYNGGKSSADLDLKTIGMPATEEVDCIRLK

B1: human PROK2 produced in E. coli (in house) (ligand)
chain: AVITGACDKDSQCGGGMCCAVSIWVKSIRICTPMGKLGDSCHPLTRKVPFFGRRMHHTCPCLPGLACLRTSFNRFICLAQK
B1: in experiment [1], the “SRE-luciferase fold-induction at 1 ng/ml” value is 4.1 fold-induction, the “SRE-luciferase fold-induction at 3.2 ng/ml” value was 7.6 fold-induction, the “SRE-luciferase fold-induction at 10 ng/ml” value amounted to 10.2 fold-induction and the “SRE-luciferase fold-induction at 32 ng/ml” value was 14.1 fold-induction. In [1], the “SRE-luciferase fold-induction at 100 ng/ml” value was 17.6 fold-induction, the “SRE-luciferase fold-induction at 320 ng/ml” value came out at 22 fold-induction and the “SRE-luciferase fold-induction at 1000 ng/ml” value came to 13.9 fold-induction. In experiment [2], the “SRE-luciferase fold-induction at 1 ng/ml” value stood at 1.9 fold-induction, the “SRE-luciferase fold-induction at 3.2 ng/ml” value is 4 fold-induction, the “SRE-luciferase fold-induction at 10 ng/ml” value was determined as 8.4 fold-induction and the “SRE-luciferase fold-induction at 32 ng/ml” value came to 15 fold-induction. For the same molecule, in [2], the “SRE-luciferase fold-induction at 100 ng/ml” value amounted to 19 fold-induction, the “SRE-luciferase fold-induction at 320 ng/ml” value worked out at 20.7 fold-induction and the “SRE-luciferase fold-induction at 1000 ng/ml” value worked out at 17.8 fold-induction. In experiment [3], the “SRE-luciferase fold-induction at 1 ng/ml” value came to 0.7 fold-induction, the “SRE-luciferase fold-induction at 3.2 ng/ml” value was 1.3 fold-induction, the “SRE-luciferase fold-induction at 10 ng/ml” value was determined as 1.9 fold-induction and the “SRE-luciferase fold-induction at 32 ng/ml” value amounted to 3 fold-induction. Moreover, in [3], the “SRE-luciferase fold-induction at 100 ng/ml” value was 4.7 fold-induction, the “SRE-luciferase fold-induction at 320 ng/ml” value stood at 6.3 fold-induction and the “SRE-luciferase fold-induction at 1000 ng/ml” value came to 7.1 fold-induction. Besides, in experiment [4], the “SRE-luciferase fold-induction at 1 ng/ml” value came out at 1 fold-induction, the “SRE-luciferase fold-induction at 3.2 ng/ml” value was determined as 1.2 fold-induction, the “SRE-luciferase fold-induction at 10 ng/ml” value came out at 1.7 fold-induction and the “SRE-luciferase fold-induction at 32 ng/ml” value turned out to be 2.6 fold-induction. For the same molecule, in experiment [4], the “SRE-luciferase fold-induction at 100 ng/ml” value is 4.4 fold-induction, the “SRE-luciferase fold-induction at 320 ng/ml” value worked out at 5.2 fold-induction and the “SRE-luciferase fold-induction at 1000 ng/ml” value is 4.8 fold-induction.

B2: human PROK2 (preparation not stated for the assay) (ligand)
chain: AVITGACDKDSQCGGGMCCAVSIWVKSIRICTPMGKLGDSCHPLTRKVPFFGRRMHHTCPCLPGLACLRTSFNRFICLAQK
As for B2, in [5], the “ERK 1/2 phosphorylation in Wky12-22 cells, 15 minutes after 100 ng/ml PROK2” value worked out at 11 fold induction over basal and the “JNK phosphorylation in Wky12-22 cells, 15 minutes after 100 ng/ml PROK2” value worked out at 3 fold. Further, the “ERK phosphorylation in 4T1.2 cells (BIO-PLEX phospho-protein assay), maximal at 100 ng/ml PROK2” value in experiment [6] turned out to be 1.8 fold.

B3: human PROK2 with a carboxy-terminal Glu-Glu tag, produced in baculovirus (PROK2cee) (ligand)
chain: AVITGACDKDSQCGGGMCCAVSIWVKSIRICTPMGKLGDSCHPLTRKVPFFGRRMHHTCPCLPGLACLRTSFNRFICLAQKGLEYMPMD
notes: also called huPROK2-CEE-Bv; Baculovirus-expressed PROK2
Consider B3, for which the Kd (as a rule, the concentration at which binding is half-saturated) in experiment [7] stood at 1.5 nM. Moreover, in [8], the Kd was found to be 31 nM. Besides, the “EC50 of ERK-Map kinase activity in Wky12-22 cells” value in experiment [5] was 0.5 nM and ~5 ng/ml. For the same molecule, in [9], the “SRE-luciferase fold-induction at 1 ng/ml, PROK2 heated at 56 C for 30 minutes” value amounted to 1.8 fold-induction; the “SRE-luciferase fold-induction at 1 ng/ml, fresh PROK2” value came to 2.5 fold-induction; the “SRE-luciferase fold-induction at 3.2 ng/ml, PROK2 heated at 56 C for 30 minutes” value was 3.7 fold-induction; the “SRE-luciferase fold-induction at 3.2 ng/ml, fresh PROK2” value worked out at 7.1 fold-induction. For the same molecule, in experiment [9], the “SRE-luciferase fold-induction at 10 ng/ml, PROK2 heated at 56 C for 30 minutes” value is 10 fold-induction; the “SRE-luciferase fold-induction at 10 ng/ml, fresh PROK2” value is 13.1 fold-induction; the “SRE-luciferase fold-induction at 32 ng/ml, PROK2 heated at 56 C for 30 minutes” value amounted to 14.8 fold-induction; the “SRE-luciferase fold-induction at 32 ng/ml, fresh PROK2” value was found to be 18.7 fold-induction. In [9], the “SRE-luciferase fold-induction at 100 ng/ml, PROK2 heated at 56 C for 30 minutes” value was determined as 18.6 fold-induction and the “SRE-luciferase fold-induction at 100 ng/ml, fresh PROK2” value came out at 20.5 fold-induction.
